{"source": "patent US20050118674A1", "about": "“Engineering of Controlled Deamidation Rates in Peptides, Proteins, and Similar Structures” (priority 2003, published 2005)", "note": "Where no end group is shown, it is not given here."}
{"experiment": "First-order nonenzymatic deamidation of pentapeptides in Tris buffer", "type": "physicochemical", "conditions": "pH 7.4, 37.0° C., 0.15 M Tris HCl; Asn pentapeptides", "protocol": "(§1) One of the discoveries made was that the sequence dependence of deamidation is much richer and covers a wider range than previously thought. In 37° C., pH 7.4, 0.15 M Tris buffer, the combination of XxxAsnYyy and XxxGlnYyy sequences where Xxx and Yyy are any of the naturally occuring amino acids covers a range from less than 1 day to over 15,000 days with the entire range in between available.\n(§2) It is based on pentapeptide rates measure in 37° C., pH 7.4, 0.15 M Tris buffer. The applicability of a pentapeptide model to sequence dependence was verified in a separate set of experiments. All values listed in this table are experimental except for the four values in boxes, which were estimated from the rest of the data.\n(§3) It is also based on pentapeptide rates measure in 37° C., pH 7.4, 0.15 M Tris buffer. In this case, the 52 values shown in bold were measured, and the rest of the values were derived from surface fitting.\n(§4) Deamidation rates are affected by a wide variety of parameters, including, pH, Temperature, Ionic Strength, and Buffer Ions. These rates are measured under pH and Temperature conditions that are applicable to biological systems. The buffer type and concentration were chosen to minimize ion affects to the extent possible given the experimental limitations. Modification of these conditions will change the rates in Tables 1 and 2. As long as the conditions are not taken to extremes (i.e. high temperature, or strongly acidic or basic conditions) the qualitative sequence dependence should remain the same and the rates reported here can be used with necessary adjustments.", "units": {"First-Order Deamidation Halftimes of GlyXxxAsnYyyGly": "days"}}
{"substance": "GlyAlaAsnGluGly (GANEG; printed: GlyAlaAsnGluGly)", "First-Order Deamidation Halftimes of GlyXxxAsnYyyGly": 74.1}
{"substance": "GlySerAsnMetGly (GSNMG; printed: GlySerAsnMetGly)", "First-Order Deamidation Halftimes of GlyXxxAsnYyyGly": 54.9}
{"substance": "GlyArgAsnCysGly (GRNCG; printed: GlyArgAsnCysGly)", "First-Order Deamidation Halftimes of GlyXxxAsnYyyGly": 50.5}
{"substance": "GlyIleAsnHisGly (GINHG; printed: GlyIleAsnHisGly)", "First-Order Deamidation Halftimes of GlyXxxAsnYyyGly": 11.5}
{"substance": "GlyThrAsnTrpGly (GTNWG; printed: GlyThrAsnTrpGly)", "First-Order Deamidation Halftimes of GlyXxxAsnYyyGly": 72.5}
{"substance": "GlyIleAsnAmCysGly", "First-Order Deamidation Halftimes of GlyXxxAsnYyyGly": 33.0}
{"substance": "GlyGlyAsnSerGly (GGNSG; printed: GlyGlyAsnSerGly)", "First-Order Deamidation Halftimes of GlyXxxAsnYyyGly": 11.8}
{"substance": "GlyArgAsnHisGly (GRNHG; printed: GlyArgAsnHisGly)", "First-Order Deamidation Halftimes of GlyXxxAsnYyyGly": 10.0}
{"substance": "GlyValAsnLeuGly (GVNLG; printed: GlyValAsnLeuGly)", "First-Order Deamidation Halftimes of GlyXxxAsnYyyGly": 154}
{"substance": "GlyPheAsnThrGly (GFNTG; printed: GlyPheAsnThrGly)", "First-Order Deamidation Halftimes of GlyXxxAsnYyyGly": 39.0}
{"substance": "GlyIleAsnLeuGly (GINLG; printed: GlyIleAsnLeuGly)", "First-Order Deamidation Halftimes of GlyXxxAsnYyyGly": 154}
{"substance": "GlyTyrAsnProGly (GYNPG; printed: GlyTyrAsnProGly)", "First-Order Deamidation Halftimes of GlyXxxAsnYyyGly": 9830}
{"substance": "GlyLeuAsnPheGly (GLNFG; printed: GlyLeuAsnPheGly)", "First-Order Deamidation Halftimes of GlyXxxAsnYyyGly": 72.4}
{"substance": "GlyThrAsnIleGly (GTNIG; printed: GlyThrAsnIleGly)", "First-Order Deamidation Halftimes of GlyXxxAsnYyyGly": 279}
{"substance": "GlySerAsnLysGly (GSNKG; printed: GlySerAsnLysGly)", "First-Order Deamidation Halftimes of GlyXxxAsnYyyGly": 55.5}
{"substance": "GlyAmCysAsnTyrGly (CNYG; not fully specified (N-terminus); printed as GlyAmCysAsnTyrGly; also: glycinamide shown before Cys, linkage not given here)", "First-Order Deamidation Halftimes of GlyXxxAsnYyyGly": 78.8}
{"substance": "GlyValAsnAmCysGly", "First-Order Deamidation Halftimes of GlyXxxAsnYyyGly": 34.7}
{"substance": "GlyLysAsnLysGly (GKNKG; printed: GlyLysAsnLysGly)", "First-Order Deamidation Halftimes of GlyXxxAsnYyyGly": 53.5}
{"substance": "GlyIleAsnProGly (GINPG; printed: GlyIleAsnProGly)", "First-Order Deamidation Halftimes of GlyXxxAsnYyyGly": 11600}
{"substance": "GlyGlyAsnGluGly (GGNEG; printed: GlyGlyAsnGluGly)", "First-Order Deamidation Halftimes of GlyXxxAsnYyyGly": 73.9}
{"substance": "GlyArgAsnAspGly (GRNDG; printed: GlyArgAsnAspGly)", "First-Order Deamidation Halftimes of GlyXxxAsnYyyGly": 34.7}
{"substance": "GlyProAsnProGly (GPNPG; printed: GlyProAsnProGly)", "First-Order Deamidation Halftimes of GlyXxxAsnYyyGly": 6590}
{"substance": "GlyAlaAsnAlaGly (GANAG; printed: GlyAlaAsnAlaGly)", "First-Order Deamidation Halftimes of GlyXxxAsnYyyGly": 22.5}
{"substance": "GlyIleAsnLysGly (GINKG; printed: GlyIleAsnLysGly)", "First-Order Deamidation Halftimes of GlyXxxAsnYyyGly": 64.4}
{"substance": "GlyGluAsnThrGly (GENTG; printed: GlyGluAsnThrGly)", "First-Order Deamidation Halftimes of GlyXxxAsnYyyGly": 36.8}
{"substance": "GlyThrAsnAlaGly (GTNAG; printed: GlyThrAsnAlaGly)", "First-Order Deamidation Halftimes of GlyXxxAsnYyyGly": 24.6}
{"substance": "GlyIleAsnArgGly (GINRG; printed: GlyIleAsnArgGly)", "First-Order Deamidation Halftimes of GlyXxxAsnYyyGly": 66.4}
{"substance": "GlyValAsnAspGly (GVNDG; printed: GlyValAsnAspGly)", "First-Order Deamidation Halftimes of GlyXxxAsnYyyGly": 33.5}
{"substance": "GlyPheAsnArgGly (GFNRG; printed: GlyPheAsnArgGly)", "First-Order Deamidation Halftimes of GlyXxxAsnYyyGly": 61.2}
{"substance": "GlyLysAsnIleGly (GKNIG; printed: GlyLysAsnIleGly)", "First-Order Deamidation Halftimes of GlyXxxAsnYyyGly": 313}
{"substance": "GlyHisAsnThrGly (GHNTG; printed: GlyHisAsnThrGly)", "First-Order Deamidation Halftimes of GlyXxxAsnYyyGly": 47.2}
{"experiment": "First-order nonenzymatic deamidation of pentapeptides in Tris buffer", "type": "physicochemical", "conditions": "pH 7.4, 37.0 ° C., 0.15 M Tris HCl; Gln pentapeptides; 52 values measured, rest derived from surface fitting", "protocol": "as §1, §2, §3, §4", "units": {"First-Order Deamidation Halftimes of GlyXxxGlnYyyGly": "days"}}
{"substance": "GlyGlyGlnMetGly (GGQMG; printed: GlyGlyGlnMetGly)", "First-Order Deamidation Halftimes of GlyXxxGlnYyyGly": 4500}
{"substance": "GlyAspGlnLeuGly (GDQLG; printed: GlyAspGlnLeuGly)", "First-Order Deamidation Halftimes of GlyXxxGlnYyyGly": 6200}
{"substance": "GlyPheGlnCysGly (GFQCG; printed: GlyPheGlnCysGly)", "First-Order Deamidation Halftimes of GlyXxxGlnYyyGly": 2000}
{"substance": "GlyValGlnArgGly (GVQRG; printed: GlyValGlnArgGly)", "First-Order Deamidation Halftimes of GlyXxxGlnYyyGly": 6100}
{"substance": "GlyTyrGlnLeuGly (GYQLG; printed: GlyTyrGlnLeuGly)", "First-Order Deamidation Halftimes of GlyXxxGlnYyyGly": 7800}
{"substance": "GlyGlyGlnSerGly (GGQSG; printed: GlyGlyGlnSerGly)", "First-Order Deamidation Halftimes of GlyXxxGlnYyyGly": 5700}
{"substance": "GlyLeuGlnValGly (GLQVG; printed: GlyLeuGlnValGly)", "First-Order Deamidation Halftimes of GlyXxxGlnYyyGly": 6800}
{"substance": "GlyAlaGlnAspGly (GAQDG; printed: GlyAlaGlnAspGly)", "First-Order Deamidation Halftimes of GlyXxxGlnYyyGly": 7400}
{"substance": "GlyTrpGlnArgGly (GWQRG; printed: GlyTrpGlnArgGly)", "First-Order Deamidation Halftimes of GlyXxxGlnYyyGly": 8300}
{"substance": "GlyAlaGlnTyrGly (GAQYG; printed: GlyAlaGlnTyrGly)", "First-Order Deamidation Halftimes of GlyXxxGlnYyyGly": 10000}
{"substance": "GlySerGlnAspGly (GSQDG; printed: GlySerGlnAspGly)", "First-Order Deamidation Halftimes of GlyXxxGlnYyyGly": 8200}
{"substance": "GlyMetGlnIleGly (GMQIG; printed: GlyMetGlnIleGly)", "First-Order Deamidation Halftimes of GlyXxxGlnYyyGly": 5000}
{"substance": "GlySerGlnIleGly (GSQIG; printed: GlySerGlnIleGly)", "First-Order Deamidation Halftimes of GlyXxxGlnYyyGly": 5900}
{"substance": "GlyCysGlnAlaGly (GCQAG; printed: GlyCysGlnAlaGly)", "First-Order Deamidation Halftimes of GlyXxxGlnYyyGly": 4100}
{"substance": "GlyLysGlnCysGly (GKQCG; printed: GlyLysGlnCysGly)", "First-Order Deamidation Halftimes of GlyXxxGlnYyyGly": 1000}
{"substance": "GlyAlaGlnMetGly (GAQMG; printed: GlyAlaGlnMetGly)", "First-Order Deamidation Halftimes of GlyXxxGlnYyyGly": 4400}
{"substance": "GlyProGlnValGly (GPQVG; printed: GlyProGlnValGly)", "First-Order Deamidation Halftimes of GlyXxxGlnYyyGly": 6200}
{"substance": "GlyGluGlnAlaGly (GEQAG; printed: GlyGluGlnAlaGly)", "First-Order Deamidation Halftimes of GlyXxxGlnYyyGly": 7100}
{"substance": "GlyLysGlnHisGly (GKQHG; printed: GlyLysGlnHisGly)", "First-Order Deamidation Halftimes of GlyXxxGlnYyyGly": 6100}
{"substance": "GlyAspGlnArgGly (GDQRG; printed: GlyAspGlnArgGly)", "First-Order Deamidation Halftimes of GlyXxxGlnYyyGly": 5200}
{"substance": "GlyValGlnAlaGly (GVQAG; printed: GlyValGlnAlaGly)", "First-Order Deamidation Halftimes of GlyXxxGlnYyyGly": 4500}
{"substance": "GlyThrGlnAlaGly (GTQAG; printed: GlyThrGlnAlaGly)", "First-Order Deamidation Halftimes of GlyXxxGlnYyyGly": 4300}
{"substance": "GlyLysGlnMetGly (GKQMG; printed: GlyLysGlnMetGly)", "First-Order Deamidation Halftimes of GlyXxxGlnYyyGly": 4000}
{"substance": "GlyGluGlnProGly (GEQPG; printed: GlyGluGlnProGly)", "First-Order Deamidation Halftimes of GlyXxxGlnYyyGly": 10000}
{"substance": "GlyCysGlnTyrGly (GCQYG; printed: GlyCysGlnTyrGly)", "First-Order Deamidation Halftimes of GlyXxxGlnYyyGly": 7900}
{"substance": "GlyTrpGlnAlaGly (GWQAG; printed: GlyTrpGlnAlaGly)", "First-Order Deamidation Halftimes of GlyXxxGlnYyyGly": 7400}
{"substance": "GlyGluGlnGluGly (GEQEG; printed: GlyGluGlnGluGly)", "First-Order Deamidation Halftimes of GlyXxxGlnYyyGly": 8200}
{"substance": "GlyTyrGlnMetGly (GYQMG; printed: GlyTyrGlnMetGly)", "First-Order Deamidation Halftimes of GlyXxxGlnYyyGly": 5300}
{"substance": "GlyIleGlnSerGly (GIQSG; printed: GlyIleGlnSerGly)", "First-Order Deamidation Halftimes of GlyXxxGlnYyyGly": 5800}
{"substance": "GlyAspGlnThrGly (GDQTG; printed: GlyAspGlnThrGly)", "First-Order Deamidation Halftimes of GlyXxxGlnYyyGly": 5400}
{"substance": "GlyTrpGlnTrpGly (GWQWG; printed: GlyTrpGlnTrpGly)", "First-Order Deamidation Halftimes of GlyXxxGlnYyyGly": 19000}
{"substance": "GlyGluGlnSerGly (GEQSG; printed: GlyGluGlnSerGly)", "First-Order Deamidation Halftimes of GlyXxxGlnYyyGly": 6100}
{"substance": "GlyHisGlnGluGly (GHQEG; printed: GlyHisGlnGluGly)", "First-Order Deamidation Halftimes of GlyXxxGlnYyyGly": 5800}
{"substance": "GlyPheGlnThrGly (GFQTG; printed: GlyPheGlnThrGly)", "First-Order Deamidation Halftimes of GlyXxxGlnYyyGly": 5300}
{"substance": "GlyGlyGlnGluGly (GGQEG; printed: GlyGlyGlnGluGly)", "First-Order Deamidation Halftimes of GlyXxxGlnYyyGly": 7300}
